Measurements reported in the supplement of paper PMC9170038.

Test system: MS2 coat protein
Experiment: apparent KD of MS2 coat protein; higher = weaker reporter binding
Details: Eterna round: R107
Method in brief: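 Apparent KD per design is the median of normalised cluster binding-curve fits. Designed RNA switches transcribed on-chip from Illumina sequencing clusters were titrated with SNAP-549-labelled MS2 coat protein in twofold steps from 0.7 or 1.5 nM to 3 µM, with 0.8–1.5 h down to 10–20 min per step. Buffer: 100 mM Tris-HCl pH 7.5, 80 mM KCl, 4 mM MgCl2, without or with constant ligand.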

[1] = input ligand: theophylline 20 uM
[2] = input ligand: theophylline 2 mM
[3] = input ligand: tryptophan 2.4 mM

Sequence | apparent KD of MS2 coat protein (input ligand: arginine 13.2 mM) | apparent KD of MS2 coat protein (input ligand: none) | apparent KD of MS2 coat protein [1] | apparent KD of MS2 coat protein [2] | apparent KD of MS2 coat protein [3]
GCCUCCAGCCGAAGGAGCGCUAGAAGGUGACAUGAGGAUCACCCAUGUGUGUGAUGUGGCUAGCAGGUAGGUCGCGGAGGAGGCA [Exclusion - Arginine B (Freestyle 22)] | 53.7 nM | 109 nM | 105 nM | 74.1 nM | 74.8 nM
GCGGGACUUUCGGCCGCCACUGAGAGAGUCGUGUGAACAUGAGGAUCACCCAUGUAAUAUAUAUACAGGACCGGGAGGGUUGCGC [4.Q] | 5.64 nM | 13.4 nM | 17.2 nM | 14.7 nM | 12.8 nM
GCUACAUGAGGAUCACCCAUGUCAGCUACACGAGGACCGGUACGGCCGCCACUCGGUAGCGCUCAUCCUCGUGUGUAAGUCAAGU [Xedier] | 48.2 nM | 81.6 nM | 116 nM | 97.5 nM | 23.5 nM
GCUACAUGAGGAUCACCCAUGUGUACUGAAGGAGCGGCGAAAACGCCAGGUAGGUCGCAGUAUGUGGCUCUGGGCACGAGAUGGC [#02 Same State - Arginine A] | 27 nM | 37.3 nM | 40 nM | 41.3 nM | 30.5 nM
GCUACAUGAGGAUCACCCAUGUGUACUGAAGGAGCGGCGGAAACGCCAGGUAGGUCGCAGUAUGUGGCUCUGGGCACGAGAUGGC [SSAA NP+V+V2 #1] | 20.1 nM | 33.6 nM | 39.4 nM | 35.9 nM | 33.7 nM
GCUAGGUCUACGGCCGCCACUAGACGUGGGUAAGACAUGAGGAUCACCCAUGUACUACAGGCGAAUAGGACCGGGUAGACCUAGC [SSTB NP+V+V2 #12 Same Structure] | 58.2 nM | 36.4 nM | 55 nM | 46.1 nM | 15.1 nM
GCUCGUUGCAUGGAUACCAGUUGAUAGGCCGCCUCCGGAUACAUGAGGAUCACCCAUGUCAACCCUUGGCAGCCACCCAAUAGGG [theeternabot_exclusion_MS2_Theo_B_27] | 10.4 nM |  | 13.7 nM |  | 10.6 nM
GCUGCACAUUCGGCCGCCACUGCUGUUACAGGAAGCUAUAGCUCACAUGAGGAUCACCCAUGUCCCAGGACCGGGAAAGUAUGGA [theeternabot_sameState_MS2_Trp_B_39] | 41.2 nM |  | 79.2 nM | 74.2 nM | 
GCUGUACCAUGAAGGAGCGCUCACGCAGUUGCGGGUACAUGAGGAUCACCCAUGUUGGGUGAGCAGGUAGGUCGCAUGGUACAGC [SSAB #17] | 227 nM | 237 nM | 193 nM | 230 nM | 215 nM
